In the RNAGym collection of RNA variant scans (doi:10.7554/elife.90254):

B1: LINE1-full (parent)
chain: UACGUAGGUGGUUUUCCCCUGAUAGUGCUAAGGGGGCCUGGAAGUUUGGACUGGGCAGAGCUCAACACAGCGUGGCAAAGUGGCUGUGGCUAGACUGCCUCUCUGGAUUCCUCGUCACUCAGCAGGGCAUCUCUGAGAGAAAUGCC

Variants of: B1
Test: self-cleavage, relative activity (ratio to wild type); higher = more cleavage; in vitro, sequencing; the parent is a self-cleaving ribozyme

Point of comparison: A22G A69G, self-cleavage 0.59. Against it:
- G86A A136U — lower, 0.06
- U45A A59U — higher, 0.6
- U26A C110A — higher, 0.95
- G49U U132A — higher, 1.31
- C76U A94G — lower, 0.18
- A64C — lower, 0.35
- G4U A142G — higher, 1.46
- U26G U47C — higher, 1.16
- G40U A67G — lower, 0.21
- A117U — higher, 1.46
- G83A — higher, 0.86
- U20G G27A — higher, 0.92
- A2G A141G — higher, 0.78
- U62C U73C — lower, 0.07
- U5C U109A — higher, 0.74
- A59G U81G — lower, 0.09
- A94U C131U — lower, 0.29
- C95U U115C — lower, 0.54
- U9A A129U — higher, 1.43
- U12G U62C — lower, 0.14
- G60A C146A — lower, 0.02
- A42C U134C — higher, 1.31
- G4A U39A — lower, 0.54
- U9C G27A — higher, 1.16
- U13A C56A — lower, 0.05
- A64C A79G — lower, 0.28
- U73A G82A — higher, 1.74
- C68U A117U — lower, 0.25
- A121G A138G — higher, 1.86
- G36A U130C — higher, 1.27
- A57U G126A — lower, 0.07
- G35A G83C — higher, 0.71
- G75A A141G — higher, 1.16
- A77G U102C — higher, 1.96
- U1A U109A — higher, 1.56
- U9A G74A — higher, 1.09
- A59G G126U — lower, 0.11
- G33U G144A — higher, 1.21
- U23C C56A — lower, 0.07
- A43G A92U — higher, 0.92
- U100C U108C — higher, 2.05
- U119C A141G — higher, 1.87
- A67G U132C — higher, 0.62
- U39C C110G — lower, 0.51
- C18A G89A — lower, 0.05
- U15C A77G — higher, 1.55
- G40U U108C — higher, 1.59
- G11A U12G — lower, 0.47
- U23A A65G — lower, 0.1
- U14C C38U — higher, 1.09
- A78G A129C — higher, 1.96
- U20C G25A — higher, 0.84
- U20G A136G — higher, 1.03
- G21U A79G — higher, 1.32
- G83U U112C — higher, 0.85
- G114A — higher, 1.17
- C95U U132C — lower, 0.21
- U102A A140G — higher, 1.62
- A69C A117G — lower, 0.11
- C113G G125U — higher, 1.66
- C17U A124G — lower, 0.47
- U12G U85C — lower, 0.4
- U1C A78G — higher, 1.38
- G27A U73A — higher, 0.87
- G40U A43G — higher, 1.11
- G60U A65U — lower, 0.02
- C37A G58A — lower, 0.03
- A50G A138C — higher, 1.12
- A59U U85C — lower, 0.16
- U14C C51G — higher, 1.84
- U15C G32C — higher, 1.16
- U9A C18G — higher, 1.1
- U12C A142U — higher, 0.91
- U91C C98U — lower, 0.19
- G49U C71U — higher, 0.71
- G27A U112C — higher, 1.7
- C19A A107G — higher, 1
- G25A U26A — higher, 1.07
- A22U U73A — higher, 1.52
- G40A A65G — lower, 0.04
- G48U A64G — lower, 0.18
- U134C A138G — higher, 1.4
- U12G C61A — lower, 0.14
- U5C G34U — higher, 0.82
- U13G U100A — higher, 0.77
- C28A U115C — higher, 1.07
- U29A A69U — lower, 0.07
- G86A A121U — lower, 0.26
- U39A G70U — lower, 0.05
- U132G — higher, 1.52
- G41A G60U — lower, 0.04
- G41U C98U — lower, 0.12
- C3U U96C — lower, 0
- U81A U100A — higher, 2.09
- A64G G105U — lower, 0.15
- U100G C113U — higher, 1.49
- G36U U104C — higher, 2.32
- G97A U100C — lower, 0.33
- U73A G80A — higher, 2.16
- A2U U85G — lower, 0.14
- C68U U87C — lower, 0.02
- U52A U81C — higher, 1.51
- U96C C113A — lower, 0.05
- U52C G105A — higher, 1.17
- U23A U100A — higher, 0.86
- A64C A94G — lower, 0.14
- A107G U119C — higher, 1.31
- A117C A142G — higher, 1.8
- U102C G126U — higher, 1.59
- C116A A124G — higher, 1.25
- A117C A121U — higher, 2.02
- G97U U108C — lower, 0.06
- A69G A140U — lower, 0.47
- C3A U12G — higher, 0.81
- U13G C76U — higher, 1.47
- U15C C133A — higher, 1.27
- U15C C133U — higher, 1.51
- U26A U119G — higher, 1.45
- G4A G93A — lower, 0.03
- U20C A57G — higher, 1.19
- A64C A142G — lower, 0.25
- C16U U132A — higher, 1.41
- U45C A121U — higher, 1.13
- U1C G7U — higher, 0.75
- C19U A79U — higher, 1.47
- U102A A142U — higher, 1.5
- A43G U109C — higher, 1.92
- U23A G105U — higher, 1.36
- A59U A121U — higher, 0.79
- G32A A57G — higher, 1.37
- G48U A57U — lower, 0.08
- A79U G137A — higher, 1.87
- C28G U134C — higher, 0.82
- U12A A79G — higher, 1.13
- G36A U109C — higher, 0.75
- U12C C84U — lower, 0.15
- A59G C71U — lower, 0.04
- G41U A129C — higher, 1.02
- U85C G105A — lower, 0.12
- U26A U29C — higher, 1.44
- U12G A43U — higher, 0.81
- A69U A94U — lower, 0.05
- U12A A94G — lower, 0.55
- A64U A79U — higher, 0.64
- A22G U87A — lower, 0.22
- C76A U143A — higher, 1.65
- A142G U143A — higher, 1.28
- C28U A141U — lower, 0.54
- U85G U119A — lower, 0.19
- A77U U134G — higher, 1.47
- U47A U87C — lower, 0.19
- A42C A92G — lower, 0.15
- C51A A141G — higher, 1.75
- A42G G125A — higher, 1.25
- C38U U100C — higher, 1.9
- U9A A140G — higher, 1.11
- A138G U143C — higher, 1.54
- U81A U132C — higher, 2.25
- C103A — higher, 1.38
- U12A U15A — higher, 0.95
- A43U A140C — higher, 1.58
- C51U G137U — higher, 1.25
- U12C A64C — higher, 0.7
- U23C U132A — higher, 1.86
- A69U C99G — lower, 0.09
- U39C A67U — lower, 0.16
